From a protein production outcome set (Wang et al. 2014) come the findings set out here.

This data set can be described thus: label from the status in PepcDB records.

Consider “EDKKGGTKPSNEAALTKTENLDFRLSFNKIKVTTDQNHFSGGTSIEQLKQWFGDPNKSEQRNAGNITLDSYTWVKDGAVINAQLYKNSTVARSISNFSFSREAKIGKEDYDELKIGESYKKVVEKLGEPDVLSQSMSSDKEEMQTVWSSGIKTKSSSATIELYFENGLLKNKTQKDLE”, for which the protein production entry is on record as “not failed”.

For “EDYEKVPLPNSVFVNTTESCEVERLFKATSPRGEPQDGLYCIRNSSTKSGKVLVVWDETSNKVRNYRIFEKDSKFYLEGEVLFVSVGSMVEHYHTHVLPSHQSLLLRHPYGYT”, the protein production result was “not failed”.

Consider “EEDWVLPSEVEVLESIYLDELQVIKGNGRTSPWEIYITLHPATAEDQDSQYVCFTLVLQVPAEYPHEVPQISIRNPRGLSDEQIHTILQVLGHVAKAGLGTAMLYELIEKGKEILTDNNIPHGQ”, for which the protein production entry is reported as “not failed”.

Consider “EEELPFKVLGDGSYLFEGKTSLSDVRHYLDLPENAFGELGDEVDTLSGLFLEIKQELPHVGDTAVYEPFRFQVTQMDKRRIIEIKIFPFE”, for which the protein production entry was “not failed”.

On to “EEGNSSELPLSAEDAKKLTELAENVLQGWDVQAEKIDVIQGNQMALVWKVHTDSGAVCLKRIHRPEKKALFSIFAQDYLAKKGMNVPGILPNKKGSLYSKHGSFLFVVYDWIEGRPFELTVKQDLEFIMKGLADFHTASVGYQPPNGVPIFTKLGRWPNHYTKRCKQMETWKLMAEAEKEDPFSQLYLQEIDGFIEDGLRIKDRLLQSTYVPWTEQLKKSPNLCHQDYGTGNTLLGENEQIWVIDLDTVSFDLPIRDLRKMIIPLLDTTGVWDDETFNVMLNAYESRAPLTEEQKQVMFIDMLFPYELYDVIREKYVRKSALPKEELESAFEYERIKANALRQLI”, for which the protein production entry is given as “not failed”.

With “EEHPRAWIISVGNELLIGRTINTNAAWLGSRLTLLGFEVERVVTVPDRVEDIAEEVGRALGRARVVITTGGLGPTYDDVTLQGVAMALGRGLKLHPGALEMVRRFYSKRGLGLTEDRVKMAMLPDGAEPLENPVGAAPGAVVEARGSLVASLPGVPSEMEAMFEKALRPLLEEIAPPGAVVECGIAVVGVPESSLAPYIKEASRVSPRVYVKSHPQGSEIGKPLVR”, the protein production result is on record as “failed”.

As for “EEPTIGDIYNGKVTSIMQFGCFVQLEGLRKRWEGLVHISELRREGRVANVADVVSKGQRVKVKVLSFTGTKTSLSMKDVDQETGEDLNPNRRRNLV”, the protein production result is listed as “not failed”.

Turning to “EERRVAYPVLRELTERTGETSALMVWNGNESMCVEQIPSRHQVKHLAPLGARYNEALSSSVQVFLASENEDRVRQLLRSGSITLTGVDEDAVEAYLLRLKESMERGWAVNFGETSIEEVGVASPVYDHRGNMVASVLIPAPKFRVSQDTLNSLGEACAAAAAKVTTRLGGRAPH”, the protein production entry is “not failed”.

In the case of “EETRTEVEKKNYMNNAEEAKDVLLGVYRTNTLDAMYGYYLSILFNLGTDISQVEGSGNENFRIIPTNSFPTTQSEVQQTWAALYTGIYRANDFLERISNKIGSYTTTDKKLATLYIAEARALRGMFYFELVRRFGNVVLMTSTQMSNQNPATYVQSAPEKVYEYIEDDLLYACDILPYATDDQYRESNDYRFSKGAALGLLTKVYATWAGYPVKDESKWEAAAKTARILVESGKHGLLKDYEQLWKNTCNGTWDPTESLIEISFYSPTVSGNSDPVGRIGKWNGVKTTAIAGVRGSCAANVKVVHTFVLDWREDVSDIRRDLSIANYQYTDTKKSLWVAGASDTDESAAEKDADPTKAQKNKQNYTPAKWDIQKYVTTNSFINNDKSNVNWYFLRYADVLLLYAEALNEWKHGPDAEAYNAINAVRRRGYGNPSNTSACDLPQGLDETSFREAVRKERSYELSFEGHRRQDLIRWGIYYKTVQATAKELGYWWEGTGSPNYSVATYTEEGKHELFPIPQRDMDLCIQFNQNPKW”, the protein production result is listed as “not failed”.

In the case of “EGDPENGEKLQITIRRGKDGFGFTICCDSPVRVQAVDSGGPAERAGLQQLDTVLQLNERPVEHWKCVELAHEIRSCPSEIILLVWRV”, the protein production result is “not failed”.

Consider “EGRLVCTVRDMTDRRQKERALRHRSSAMEVASDGIAILDEAGTYQYVNQAHASIYGYDTPGALVGRSWTACYEEAEQQRLEAEAMAALEETGDWRGEARGVREDGSSFPQELTLTVLEDGSIVCVVRDITARKEDERELRSTKQYYEQILEKAVK”, for which the protein production result is “failed”.

Regarding “EIKLEDVLIKRRSVREYCSSPLTLRELSHILFAAYGVTDERGFKTVPSAGATYPLEIYVNVRDVVGVEEGVYKYIPERHSIVRILDEEVGHELALAALKQMFIAIAPIVLIIAANYERTTRVYGDRGFRYVHMEVGHVAQNVYLMATSLGLGTVSVGAFYDNEIREILKIKEYPLLLMPVG”, the protein production entry was “failed”.

Take “EKGTTGTGNAALDNIFERKSVRTYLNKGVEKEKIDLMLRAGMSAPSGKDVRPWEFVVVSDRAKLDSMAAALPYAKMLTQARNAIIVCGDSARSFYWYLDCSAAAQNILLAAESMGLGAVWTAAYPYEDRMEVVRKYTHLPENILPLCVIPFGYPATKEQPKQKYDEKKIHYNQY”: the protein production result was “not failed”.

With “EKIWPRDRSASRERSLSPRSDRRSVASSQPAKPTKVTLVKSRKNEEYGLRLASHIFVKEISQDSLAARDGNIQEGDVVLKINGTVTENMSLTDAKTLIERSKGKLKMVVQRDERATLLNVPDLSDSIHSANASERDDISEIQSLASDH”, the protein production result is reported as “failed”.

As for “ELHPRTGRLVSLSACGRTARRQQPGQEFNHGLVLSREPLRDGRVFTVRIDRKVNSWSGSIEIGVTALDPSVLDFPSSATGLKGGSWVVSGCSVLRDGRSVLEEYGQDLDQLGEGDRVGVERTVAGELRLWVNGRDCGVAATGLPPRVWAVVDLYGKCTQITVL”, the protein production result is “not failed”.

Take “ELTIPKGAVSEIVTLSETFNQMAALLAEREQAILDSRGNRFARLIDGMSDKSFYCSLDPDGQLAQVSEGVTKVLGIPPELLKRKYQRLFSANPLNEKNWEYTDLALKGQNVPPHQIELVDAKGQARRLDVFMQPLVSDT”: the protein production entry was “failed”.

Turning to “EMFYFEPVNIKKYLGSIGSELSDEVITIEQFFNLNSEYITIIDARSPREFSEKTISNAVNIPLFLTEEYETIGKLYKHEGKEVAIAKAGIIIQDGIKRIVSESLKLDPNKNLVVFCARGGMRSQSIATILKLLGFKVKRLVGGFKSYNISKT”, the protein production result was “failed”.

Turning to “EMTDLQSTHKNFLFEIEEVGIKNLTYPVLIDQYQTAGLFSFSTSLNKNEKGINMSRILESVEKHYDNGIELEFNTLHQLLRTLQDKMNQNAAGVDVSGKWFFDRYSPVTNIKAVGHADVTYGLAIENHTVTRKELTIQAKVTTLCPCSKEISEYSAHNQRGIVTVKAYLDKNNDVIDDYKDKILDAMEANASSILYPILKRPDEKRVTERAYENPRFVEDLIRLIAADLVEFDWIEGFDIECRNEESIHQHDAFARLKYRK”, the protein production result is “not failed”.

For “EPTFVVAQIKEIIDHPDSDHLHICQAEINDGKTVQIVCGAPNASVGLKTVAALPGAMMPNGSLIFPGKLRGEDSFGMLCSARELALPNAPQVRGIIELSDQVIVGESFDANK”, the protein production result is reported as “failed”.

“EPVQLTVPQMLAQLQGTDTSLRYYAAWWLGKFGLETATAAERQAIVSALIAALADEADRTELGGYPLRRNAARALGKLGDRQAVPALIECLRCEDFYVREAAAIALGQLGDPRAIAPLQSLLEGGVAMARLVPGRPHLVQPVEAVIESLGHLGATEAIALIEPFLAHEMPRVQFAAARALFQLTGDAVYGDRLLAALNSEDVQLRRTALLDLGAMGYLPAAEAILQAGVEASFKLIALHGILGQQLRQAAPAEQTLSLFQGLDQLL”: the protein production entry is reported as “failed”.

As for “EQDIVANGGEVLGSETVGDVSLFFLNPVGHIHHWVTDAWGGSAELKFNSSPWFGNQDVAKFAMDAGASYDSQFYGVELKVTF”, the protein production result was “failed”.

Regarding “EQQGKFDWMLRDLYDGVPGIEMIVVLSADGLRIARYSGDPDAADRVAAACAGLQSLASAVSQEIPTSDGDMKMVLIEMNGGYFYLMAAGPNAYLAVLSDVRCEPGRMGLSMADLVARIGPHLTSPARR”, the protein production entry is given as “failed”.

On to “EQYGDLPPRVFECRLAMVQPSSVVSGNNRWSTAANDMLKTVAQCGLIDIEVYSLFNNVAAVLIHMRDGIINDKLVELMLCRRSDEDYMSRKDHDFRLRRQ”, for which the protein production entry is listed as “failed”.

“ERIRYESQIKRFNRIMDTTMENIPAGIVVKDIENDFRYIYRNRESYNRDISSENAIGMNDFDYYPPEMAQQKRKEDMEIAATGKGMHWIMEGKDKNGNLLILDKQKIMVESEDFSPIIVSIEWDIT”: the protein production result is recorded as “failed”.

Turning to “ERKRREKRLEETSSRLEALFENSPDMIDVLDADGTICEVNQRFCAELGYDESEVLGRSIWEFDLMFDAEDVQTQLSGFSVDERRKFEGLYERRDGSTMSVEVHLLRFNLEGEDRFLAISRDIT”, the protein production entry is on record as “not failed”.

Turning to “ERNKTLYWGGALWSPPSNWNPFTPWNAVAGTIGLVYEPLFLYDPLNDKFEPWLAEKGEWVSNNEYVLTLRKGLRWQDGVPLTADDVVFTFEIAKKYTGISYSPVWNWLGRIERVDERTLKFVFSDPRYQEWKQMLINTPIVPKHIWENKTEEEVLQAANENPVGSGPYYVESWADDRCVFKKNGNWWGIRELGYDPKPERIVELRVLSNNVAVGMLMKGELDWSNFFLPGVPVLKKAYGIVTWYENAPYMLPANTAGIYINVNKYPLSIPEFRRAMAYAINPEKIVTRAYENMVTAANPAGILPLPGYMKYYPKEVVDKYGFKYDPEMAKKILDELGFKDVNKDGFREDPNGKPFKLTIECPYGWTDWMVSIQSIAEDLVKVGINVEPKYPDYSKYADDLYGGKFDLILNNFTTGVSATIWSYFNGVFYPDAVESEYSYSGNFGKYANPEVETLLDELNRSNDDAKIKEVVAKLSEILLKDLPFIPLWYNGAWFQASEAVWTNWPTEKNPYAVPIGWNGWWQLTGIKTLFGIEAK”, the protein production entry is reported as “not failed”.

In the case of “ESEPYVRLTTLRQLHQVMADMNTARSLADTLQTVADGVVNGLGYELACVNLVRPDGDLVVAAFAGNSAAEALITGRVGSRVSWDRRLDMGEAWGDLRFIPHTEGWVLDEDDVPQWYTDGPEPRFEDEWHPSDRLFAPMYTPGVQGASCGELIGVLSVDRPRNGRKPGAWGREALQMYAFQAAIAISNARLRANMQRALVRLEREQQALRASEESFRQAFEYAPS”, the protein production result is recorded as “failed”.

Take “ETSDQRKAEEHIEKEAKYLASLLDAGNLNNQANEKIIKDAGGALDVSASVIDTDGKVLYGSNGRSADSQKVQALVSGHEGILSTTDNKLYYGLSLRSEGEKTGYVLLSASEKSDGLKGE”: the protein production entry is listed as “not failed”.

Turning to “FANTATVAVSQIVEHPALDATRQGLLDGLKAKGYEEGKNLEFDYKTAQGNPAIAVQIARQYVGESPDVLVGIATPSAQALVSATRTIPVVFTAVTDPVGAKLVKSMKQPGKNVTGLSDLSPVAQHVELIQEILPQVKSIGVVFNPGEANAVTLVNLLKESAEAKGIKVVEATALKSADVQSATQAIAAKSDILYAPTDNTVASAIEGMIVAANQAKKPVFGGATSYVEKGAIAGLGFDYYQVGVQTADYVAAILDGQEPGKLDVKVATGSDLVINESAASKLGIQLPSSVVQRATSMQ”, the protein production entry is “failed”.

Take “FDENWGADEELLLIDACETLGLGNWADIADYVGNARTKEECRDHYLKTYIE”: the protein production result is given as “not failed”.

As for “FEKVYHLKLSIKGITPQIWRRIQVPENYTFLDLHKAIQAVMDWEDYHLHEFEMVNPKTGMLDKIGAEGDDFDAFGGPLVSEKKAKLSDYFTLENKEALYTYDFGDNWQVKVRLEKILPRKEGVEYPICTAGKRAAVPEDSGGVWGYEEMLEVLKDSEHEEYEDTVLWLGDDFDPEYFDPKDVS”, the protein production entry is listed as “failed”.

As to “FGKVTSSQQVAQRLLQEMKGLQQEHLICIYLNTKNDIIQQKTIFKGSLNQSIAHPREIFREAVKYSSARILLAHNHPSGNPTPSPQDIQFTKRMEECGEMMGIQLLDHIILGDSGYISLREENFFASE”, the protein production entry is “failed”.
